Test results published in PMC3039359.

Columns and labels:
[1] = target: T1, Rrp47 ΔC (Saccharomyces cerevisiae, UniProt P38801 1-120, del121-184); experiment: filter binding
T1 sequence: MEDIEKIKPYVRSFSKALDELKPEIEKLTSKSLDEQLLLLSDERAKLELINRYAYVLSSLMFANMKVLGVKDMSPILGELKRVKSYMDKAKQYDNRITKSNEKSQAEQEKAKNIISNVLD

[2] = target: T2, Rrp47 (Saccharomyces cerevisiae, UniProt P38801 1-184); experiment: filter binding
T2 sequence: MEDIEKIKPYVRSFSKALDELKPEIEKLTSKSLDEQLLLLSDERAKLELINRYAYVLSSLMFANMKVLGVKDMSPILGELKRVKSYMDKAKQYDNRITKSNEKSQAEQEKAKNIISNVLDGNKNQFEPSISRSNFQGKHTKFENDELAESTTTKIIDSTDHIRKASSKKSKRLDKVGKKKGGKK

B1: SL-AU RNA (structured_RNA)
RNA: GGGUUUCCUUCUCAAACAUUCUGUUUGGUAGUGAGUAAUUAAAAAUGAAUU
With B1 the binding result [1] was “no binding” and the Kd [2] was about 1000 nM.
